Test results from patent publication US20070042353A1, “HCV polymerase suitable for crystal structure analysis and method for using the enzyme” (Japan Tobacco Inc., priority 1999, published 2007).
Where no end group is shown, it is not given here.

Key:
[1] = target: T1, NS5B544 (Hepatitis C virus genotype 1b, UniProt P26663); test: HCV polymerase-inhibitory activity of synthetic peptide, pre-incubated with NS5B544; assay type: biochemical, HCV-BK strain; details: final concentration of 30 μM; pre-incubated with NS5B544 at 25° C. for 30 minutes
T1 construct: residue 1 (Ser) of the NS5B, a C-terminal amino acid residue of X′ is any one of amino acid residues 531 (Lys) to 544 (Gln); made in house; host or cells: E. coli
Description: The reaction mixture with the composition mentioned below (30 μl) was reacted at 25° C. for 90 min. • Reaction mixture: the HCV polymerase obtained in Example 1 (1 μg/ml), the template RNA obtained in Example 5 (10 μg/ml), ATP (50 μM), GTP (50 μM), CTP (50 μM), UTP (2 μM), [5, 6-^3H] UTP (46 Ci/mmol (Amersham), 1.5 μCi), 20 mM Tris-HCl (pH 7.5), EDTA (1 mM), MgCl2 (5 mM), NaCl (50 mM), DTT (1 mM), BSA (0.01%).
The reaction was terminated by adding 10% trichloroacetic acid at 4° C. and 1% sodium diphosphate solution (150 μl) to the reaction mixture, and kept in ice for 15 min to precipitate the RNA. The RNA was trapped on a glass filter (Whatman, GF/C) by suction filtration. The filter was washed with a solution containing 1% trichloroacetic acid and 0.1% sodium diphosphate, then with 90% ethanol, and dried. A liquid scintillation cocktail (Packard) was added to the RNA synthesized by the enzyme reaction, and the radioactivity of the RNA was measured by a liquid scintillation counter.
Next, a synthetic peptide was prepared by a conventional method and its HCV polymerase-inhibitory activity was assessed. […] The synthetic peptide and NS5B544 were pre-incubated at 25° C. for 30 minutes, and the polymerase activity was measured in the same manner as in Example 5. […]

[2] = test system: HCV polymerase; test: Measurement of the HCV polymerase activity (3H-UTP incorporation into template RNA); assay type: biochemical, HCV-BK strain; details: radioactivity of the NS5B591 enzyme reaction as standard; polymerase 1 μg/ml, 25° C., 90 min
Text: The DNA fragment (148 bp) containing polyU and 3′ X sequence was completely synthesized using synthetic primers designed based on the sequence of the 3′ untranslational region of the HCV genome, and cloned into plasmid pBluescript SK II (+) (Stratagene). The cDNA encoding the full length NS5B prepared in the same manner as in Example 1 was digested with restriction enzyme KpnI to obtain the cDNA fragment covers the region from the restriction enzyme cleavage site to the stop codon. This cDNA fragment was ligated to the upstream of 3′ untranslational region DNA of pBluescript SK II (+). The DNA insert of about 450 bp in total was used as a template for preparing the template RNA. The plasmid was cleaved just after 3′ X sequence, circulated, treated with phenol/chloroform, and purified by ethanol precipitation to recover the DNA.
Using the purified DNA as a template, utilizing the promoter in pBluescript SK II (+), RNA was synthesized by the run-off method using MEGAscript RNA synthesis kit (Ambion), and T7 RNA polymerase (at 37° C. for 3 hours). DNaseI was added thereto and further incubated for 1 hour, and the template DNA was decomposed and removed to obtain the crude RNA product. The crude product was treated with phenol/chloroform, and purified by ethanol precipitation to obtain the desired template RNA. After confirming the quality of the RNA by agarose gel electrophoresis, the RNA was stored at −80° C. The RNA is a template suitable for the highly sensitive measurement of the polymerase activity. […]
The reaction was terminated by adding 10% trichloroacetic acid at 4° C. and 1% sodium diphosphate solution (150 μl) to the reaction mixture, and kept in ice for 15 min to precipitate the RNA. […] A liquid scintillation cocktail (Packard) was added to the RNA synthesized by the enzyme reaction, and the radioactivity of the RNA was measured by a liquid scintillation counter.
The activity of the HCV polymerase was calculated from the value of radioactivity in the enzyme reaction of each NS5B using the radioactivity in the enzyme reaction of NS5B591 as a standard.

Row | Substance | inhibition of the polymerase activity [1] [%] | relative activity (%) [2] [%]
1 | KDLSGWFK [positions 546 to 551 of HCV polymerase NS5B with a Lys residue attached to both ends] | 40 to 50 | –
2 | NS5B531: consecutive amino acid sequence 1-531 of NS5B with histidine tag | – | 2149
3 | NS5B536: consecutive amino acid sequence 1-536 of NS5B with histidine tag | – | 2107
4 | NS5B544: consecutive amino acid sequence 1-544 of NS5B with histidine tag GSHHDHHH | – | 2014
